From patent US20020164762 come the findings set out here.

The target of data set [1] is T1, Acetyl-Tyr-Val-Ala-Asp-pNA.
T1 chain: YVAD

For data set [2], the target named is T2, Acetyl-Asp-Glu-Val-Asp-pNA.
T2 chain: DEVD

B1: D381E N-His ICE (D381E-modified human interleukin-1β converting enzyme, p20/p10, with N-terminal polyhistidine tag) (protein)
chain 1: HHHHHHNPAMPTSSGSEGNVKLCSLEEAQRIWKQKSAEIYPIMDKSSRTRLALIICNEEFDSIPRRTGAEVDITGMTMLLQNLGYSVDVKKNLTASDMTTELEAFAHRPEHKTSDSTFLVFMSHGIREGICGKKHSEQVPDILQLNAIFNMLNTKNCPSLKDKPKVIIIQACRGDSPGVVWFKD
chain 2: AIKKAHIEKDFIAFCSSTPDNVSWRHPTMGSVFIGRLIEHMQEYACSCDVEEIFRKVRFSFEQPEGRAQMPTTERVTLTRCFYLFPGH
For the protein B1, the Km values was 43 µM in data set [1] and 44 µM in data set [2]. Moreover, the Vmax values (M^-1 s^-1) in data set [1] was 0.19; in data set [2] it was 0.08.

B2: WT N-His ICE (wild-type human interleukin-1β converting enzyme, p20/p10, with N-terminal polyhistidine tag) (protein)
chain 1: HHHHHHNPAMPTSSGSEGNVKLCSLEEAQRIWKQKSAEIYPIMDKSSRTRLALIICNEEFDSIPRRTGAEVDITGMTMLLQNLGYSVDVKKNLTASDMTTELEAFAHRPEHKTSDSTFLVFMSHGIREGICGKKHSEQVPDILQLNAIFNMLNTKNCPSLKDKPKVIIIQACRGDSPGVVWFKD
chain 2: AIKKAHIEKDFIAFCSSTPDNVSWRHPTMGSVFIGRLIEHMQEYACSCDVEEIFRKVRFSFEQPDGRAQMPTTERVTLTRCFYLFPGH
For B2, the values for the Km values in data set [1] and in data set [2] were 26 µM and 25 µM, respectively. The Vmax values (M^-1 s^-1) in data set [1] is 0.04; in data set [2], 0.02.
